Data taken from the supplement of paper PMC10724198.
± gives the standard deviation of the averaged measurements.

What follows are sequences tested on Saccharomyces cerevisiae (assay: protein stability index of tFT-peptide fusion (C-terminal peptide) (PSI (0-1 scale)); higher = more stable (slower turnover)). Details: genetic background: wild type; temperature: 30 C.
Experimental: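 Multiplexed protein stability (MPS) profiling in S. cerevisiae. Random 12-aa peptides (tFT-X12 library) are fused to the C-terminus of a sfGFP-mCherry tandem fluorescent timer, after mCherry and a GGGS linker. Cells are FACS-sorted into 8 mCherry/sfGFP bins and deep-sequenced. The protein stability index (PSI) is the read-weighted bin average, scaled from 0 (unstable) to 1 (stable). Only peptides with >10 reads are reported; cells were grown at 30 °C in SC-His with glucose.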
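Further: PSI is a weighted mean of sequencing reads over stability bins, variants kept only with over 10 reads, mCherry proximal and sfGFP distal, peptide attached via GGGS linker.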

Sequence	protein stability index
IDLWGNGRCVEL	0.701 ± 0.048
IEKVKIMNKERN	0.692 ± 0.017
IFFRARRLEAHT	0.608 ± 0.019
IFGMSIMLNRIT	0.541 ± 0.041
IFGVSRTGIRCT	0.56 ± 0.011
IFKNAWSSYRIE	0.714 ± 0.037
IFPRPHVDIPLL	0.922 ± 0.075
IFRSCCLLGLCL	0.591 ± 0.099
IFYCPPVPTFPL	0.697 ± 0.024
IGEGLLFWFGIR	0.66 ± 0.042
IGGAMLSPLKVR	0.55 ± 0.021
IGGDLGRDSTCL	0.592 ± 0.11
IGGGPLWLVNNM	0.6748 ± 0.0054
IGGYNRTFELMG	0.678 ± 0.032
IGRVSVWDQKVA	0.673 ± 0.054
IGSDFQLFLEGC	0.668 ± 0.044
IGSEKGKIGVGC	0.677 ± 0.067
IGTGHPRTGLSR	0.682 ± 0.031
IIFRLLLSRFFL	0.543 ± 0.022
IIRAGVPLSISE	0.652 ± 0.019
IIRKQQAKKVEL	0.681 ± 0.025
IIRSKGTKSMHK	0.691 ± 0.013
IIYKPEKMRPKS	0.7146 ± 0.0068
IKFMTTGVRTMG	0.662 ± 0.03
IKKKKKKIKRNN	0.654 ± 0.0099

Sequence	protein stability index
IKKKKRRKEQEK	0.7477 ± 0.0035
IKKKTKQKQHEK	0.786 ± 0.3
IKKRKQYCKRIK	0.6801 ± 0.0048
IKRIDQYEKQNK	0.659 ± 0.07
IKRIYQKKIERK	0.762 ± 0.067
ILDNWQFSYIKD	0.713 ± 0.051
ILDRRTKREDLK	0.667 ± 0.038
ILKQYLHRRFEF	0.709 ± 0.057
ILLFISGPPMSF	0.735 ± 0.062
ILRPAPVFPLDP	0.689 ± 0.0089
ILSCLLRSSFQC	0.606 ± 0.045
ILSSPGLLLFRL	0.5449 ± 0.005
ILWFYSDSPWLS	0.763 ± 0.11
IMDHKSNSDKWI	0.7193 ± 0.0011
IMKKKKNKARDI	0.75 ± 0.055
IMSFTLLAPGQM	0.692 ± 0.019
INHNKNKTIIAL	0.655 ± 0.0075
INRDKLNRRKKL	0.687 ± 0.038
INSKTRIQVTEN	0.73 ± 0.035
INSSPRSSTLLL	0.686 ± 0.034
INWNVMDRVTCN	0.633 ± 0.12
IPLLEALLQLAA	0.562 ± 0.014
IPLSFDRLLLID	0.63 ± 0.015
IPPCRSFSYIAT	0.68 ± 0.048
IPPLNQDPFCAS	0.678 ± 0.017

Sequence	protein stability index
IPPSSLSSPLPP	0.704 ± 0.019
IPQIVRKLVPLT	0.575 ± 0.007
IPSVRATDGKIM	0.649 ± 0.024
IRCHSERKSWMY	0.7 ± 0.065
IRDLFHHFFLSV	0.654 ± 0.038
IRIIETPDSFYK	0.795 ± 0.058
IRIKKGMETGKL	0.69 ± 0.0084
IRIKKQRKEKRK	0.734 ± 0.048
IRLSVPGLTCVS	0.504 ± 0.0031
IRPFALSPSSLP	0.658 ± 0.12
IRRKYEGNKEQN	0.721 ± 0.069
IRSRSVTKYGWS	0.606 ± 0.025
IRVGVESGSRGR	0.728 ± 0.22
IRVLDVWRSGHL	0.737 ± 0.0079
ISPFPSFPPTLS	0.734 ± 0.064
ISPLPPVPAGLS	0.6906 ± 0.0056
ISPTPPAPSRPS	0.688 ± 0.015
ISRATMKARARG	0.6522 ± 0.004
ISVSGLVVSVGP	0.649 ± 0.011
ISWTRAPLAHPR	0.879 ± 0.17
ITLQGDWCRLVD	0.715 ± 0.092
ITWFRKVGAYGA	0.644 ± 0.069
IVFRLGRFCGRV	0.709 ± 0.018
IVNLAQAEFVVT	0.645 ± 0.039
IVRTKLHPIGTS	0.655 ± 0.043

Sequence	protein stability index
IVSPGSLAGCSV	0.675 ± 0.034
IVTGMGVVHIWR	0.698 ± 0.04
IVTSPRPPRCTS	0.7193 ± 0.0051
IVVRAGGCSVGW	0.695 ± 0.081
IYNDPYYLIKAR	0.644 ± 0.018
IYPRLGPHSLVC	0.589 ± 0.016
KAPCRVGARKGG	0.688 ± 0.051
KCKLLKIMKKKE	0.636 ± 0.13
KDANACSCDATS	0.6774 ± 0.0026
KDDKQRKQHGKK	0.6632 ± 0.0046
KDKKKNQNRKKN	0.661 ± 0.038
KDKRNEGSGLCK	0.645 ± 0.022
KDNCHSNQRELT	0.663 ± 0.046
KEEAKRPQSNET	0.706 ± 0.02
KEEAQKMKKIGE	0.752 ± 0.096
KEKSRNIKKRRK	0.705 ± 0.079
KEKYEQIDIGKN	0.719 ± 0.066
KELESKLISKKR	0.75 ± 0.068
KEREGSRKETKH	0.694 ± 0.01
KEYRTKNNKGRK	0.654 ± 0.11
KFHPRPPSRVLR	0.6542 ± 0.0022
KFWRCVVVGYGL	0.641 ± 0.099
KGHMYEFRKGVR	0.68 ± 0.011
